# ± gives the standard error. For some assays here: This sample holds only a part of the variants without activity.
# B1: glmS ribozyme (parent)
# chain: AUAAAAGCGCCAGAACUACAGAAAUGUAGUUGACGAGGAGGAGGUUUAUCGAAUUUUCGGCGGAUGCCUCCAAA
# Assays:
# Conditions in all cases: with glucosamine-6-phosphate
# glucosamine-6-phosphate [1] = variants of: B1; assay: kcat; higher = faster cleavage; RNA array
# In short: (§1)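 kcat and KM were obtained from weighted Michaelis–Menten fits across concentrations of kobs values. Those came from one- or two-exponential decay fits to per-tile medians normalised to baseline and to non-cleaving reference variants. The variants were barcoded ribozymes transcribed in situ by E. coli RNA polymerase on sequenced MiSeq chips and tracked through a hybridised Cy3 probe at 37 °C, with 40 μM to 10 mM glucosamine-6-phosphate in HEPES/KCl/Mg(OAc)2 buffer flowed in.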
# glucosamine-6-phosphate [2] = variants of: B1; assay: self-cleavage kobs at 160 uM GlcN6P; higher = faster cleavage; RNA array
# In short: as §1
# glucosamine-6-phosphate [3] = variants of: B1; assay: self-cleavage kobs at 640 uM GlcN6P; higher = faster cleavage; RNA array
# In short: as §1
# glucosamine-6-phosphate [4] = variants of: B1; assay: self-cleavage kobs at 2500 uM GlcN6P; higher = faster cleavage; RNA array
# In short: as §1
# glucosamine-6-phosphate [5] = variants of: B1; assay: self-cleavage kobs at 10000 uM GlcN6P; higher = faster cleavage; RNA array
# In short: as §1
# glucosamine-6-phosphate [6] = variants of: B1; assay: KM; higher = weaker cofactor use; RNA array
# In short: as §1
# glucosamine-6-phosphate [7] = variants of: B1; assay: self-cleavage kobs at 40 uM GlcN6P; higher = faster cleavage; RNA array
# In short: as §1
Variant,kcat (glucosamine-6-phosphate [1]) [s⁻¹],self-cleavage kobs at 160 uM GlcN6P (glucosamine-6-phosphate [2]) [s⁻¹],self-cleavage kobs at 640 uM GlcN6P (glucosamine-6-phosphate [3]) [s⁻¹],self-cleavage kobs at 2500 uM GlcN6P (glucosamine-6-phosphate [4]) [s⁻¹],self-cleavage kobs at 10000 uM GlcN6P (glucosamine-6-phosphate [5]) [s⁻¹],KM (glucosamine-6-phosphate [6]) [µM],self-cleavage kobs at 40 uM GlcN6P (glucosamine-6-phosphate [7]) [s⁻¹]
U69G C70U,4.03e-05 ± 6.8e-06,4.73e-05 ± 1.4e-05,4.66e-05 ± 9.6e-06,5.03e-05 ± 8.5e-06,2.88e-05 ± 6.8e-06,–,–
G13U C68U,0.000114 ± 6.9e-06,–,2.76e-05 ± 8.2e-06,7.37e-05 ± 8.5e-06,9.63e-05 ± 8.5e-06,1630 ± 310,–
A6U U57G C67G,2.88e-05 ± 7.6e-06,–,–,–,–,–,–
A12C G41C,4.9e-05 ± 9.3e-06,–,–,7.35e-05 ± 3.2e-05,4.45e-05 ± 1.1e-05,–,–
A6C G29C,< 1e-05,< 1e-05,–,–,–,–,–
A64G U65A,0.00547 ± 0.00084,0.000381 ± 7.6e-05,0.00133 ± 0.00024,0.00387 ± 0.00065,0.00429 ± 0.00072,1850 ± 410,0.000129 ± 2.2e-05
U31G G59U,3.05e-05 ± 9.5e-07,–,–,–,2.88e-05 ± 1e-05,511 ± 160,–
C11G C70U,1.5e-05 ± 6.7e-07,–,–,–,–,138 ± 61,–
A15U G40U,0.000328 ± 7.5e-05,2.65e-05 ± 1.3e-05,0.000117 ± 2.2e-05,0.000447 ± 6.9e-05,0.000273 ± 2.8e-05,–,–
A6U G37U,< 1e-05,< 1e-05,–,< 1e-05,–,–,–
G40C C70U,0.000498 ± 0.00011,0.000155 ± 3.2e-05,0.0002 ± 3.4e-05,0.000428 ± 9.7e-05,0.000555 ± 6.8e-05,512 ± 240,4.61e-05 ± 9e-06
G41U U49G,3.94e-05 ± 6e-06,–,–,–,3.38e-05 ± 1e-05,–,< 1e-05
C10A U46G C50U C68U,3.67e-05 ± 1.3e-05,–,–,–,–,–,–
C16G C70G,5.91e-05 ± 5.2e-06,–,5.48e-05 ± 9.9e-06,6.29e-05 ± 9.7e-06,5.09e-05 ± 9.5e-06,–,–
U30C G40U,4.56e-05 ± 6.3e-06,–,–,5.33e-05 ± 1.1e-05,4.17e-05 ± 6.9e-06,–,–
A15U A53C,0.000734 ± 0.00026,0.00014 ± 4.7e-05,0.000643 ± 0.00016,–,0.000636 ± 0.00012,–,–
A12G C71G,0.000425 ± 2.2e-05,–,5.45e-05 ± 6.3e-06,0.00015 ± 1.6e-05,0.000298 ± 3.1e-05,4400 ± 370,–
C16A U45A,0.00475 ± 0.0015,0.000133 ± 3.5e-05,0.000781 ± 0.00013,0.00222 ± 0.00037,0.00331 ± 0.00052,3620 ± 1600,7.33e-05 ± 1.3e-05
G32A C68U,0.0003 ± 1.7e-05,–,7.37e-05 ± 1.1e-05,0.000149 ± 1.9e-05,0.000251 ± 2e-05,2170 ± 300,–

Variant,kcat (glucosamine-6-phosphate [1]) [s⁻¹],self-cleavage kobs at 160 uM GlcN6P (glucosamine-6-phosphate [2]) [s⁻¹],self-cleavage kobs at 640 uM GlcN6P (glucosamine-6-phosphate [3]) [s⁻¹],self-cleavage kobs at 2500 uM GlcN6P (glucosamine-6-phosphate [4]) [s⁻¹],self-cleavage kobs at 10000 uM GlcN6P (glucosamine-6-phosphate [5]) [s⁻¹],KM (glucosamine-6-phosphate [6]) [µM],self-cleavage kobs at 40 uM GlcN6P (glucosamine-6-phosphate [7]) [s⁻¹]
U30A G37C,< 1e-05,< 1e-05,< 1e-05,–,–,–,< 1e-05
U46A U54A,0.00331 ± 0.00047,0.000321 ± 8.4e-05,0.000932 ± 0.00035,0.00181 ± 0.00029,0.00334 ± 0.00047,1420 ± 350,0.000104 ± 1.9e-05
G13A G29C,0.00011 ± 4.9e-06,–,–,5.98e-05 ± 1.3e-05,9.3e-05 ± 1.7e-05,1990 ± 240,–
U47A U57A,0.000331 ± 5.6e-05,–,3.47e-05 ± 9.4e-06,8.34e-05 ± 2e-05,0.000205 ± 2.7e-05,6360 ± 1900,–
G13C G32A,0.00943 ± 0.0032,0.000338 ± 6.2e-05,0.00124 ± 0.00016,0.00305 ± 0.00052,0.00781 ± 0.00085,3620 ± 1600,0.000142 ± 1.5e-05
C58A C67G,9.61e-05 ± 2.2e-05,3.39e-05 ± 1.3e-05,6.98e-05 ± 9.8e-06,6.08e-05 ± 1e-05,0.000124 ± 1.3e-05,–,–
A39C C58U,1.02e-05 ± 1.6e-06,–,–,–,–,–,–
G41C U47C,3.99e-05 ± 4.8e-06,–,–,–,3.66e-05 ± 1.1e-05,–,–
U47G C50G C68U,6.02e-05 ± 2e-05,7.17e-05 ± 9.5e-06,–,7.59e-05 ± 1.6e-05,3.03e-05 ± 1.3e-05,–,–
A39U C50U,4.51e-05 ± 4.1e-06,–,–,3.23e-05 ± 9.4e-06,3.95e-05 ± 7.1e-06,1250 ± 570,–
A15G G32A C70G,9.72e-05 ± 1.2e-05,0.000115 ± 3.5e-05,0.000107 ± 2.6e-05,7.81e-05 ± 3e-05,9.41e-05 ± 1.1e-05,–,–
G13C C16G,0.000162 ± 5.6e-05,–,4.75e-05 ± 2.1e-05,4.43e-05 ± 1.5e-05,0.000108 ± 1.6e-05,–,–
U56A C61G,< 1e-05,–,–,–,–,–,–
A53G G66C,0.000985 ± 5.6e-05,0.000121 ± 5e-05,–,0.000619 ± 0.00014,0.000909 ± 0.00017,1230 ± 190,–
C50A U56G,< 1e-05,–,–,–,–,–,–
U47C G51U,< 1e-05,–,< 1e-05,–,< 1e-05,–,–
A52G C58G,1.7e-05 ± 1.7e-06,–,–,–,–,–,–
C34U G51A,5.64e-05 ± 4.4e-06,–,–,–,4.45e-05 ± 8.4e-06,2710 ± 750,–
G62A C68U,< 1e-05,–,–,–,< 1e-05,–,–
